Laboratory results taken from PMC7280208, “Integral approach to biomacromolecular structure by analytical-ultracentrifugation and small-angle scattering” (Communications Biology, 2020).

Molecular target: T1, PUB domain of peptide:N-glycanase (UniProt Q9JI78 1-119)
T1 construct: PUB domain of peptide:N-glycanase (PNGase); molecular weight 12.5 kDa as printed in the methods; PDB 2D5U is, as I recall, the mouse protein; The supplement's 1.34 mg/mL for 100 µM implies 13.4 kDa, not the 12.5 kDa of the methods; also called PNGase-PUB; component B; source: purified, dialyzed in 10 mM sodium phosphate buffer (pH 7.0) or PBS
T1 sequence: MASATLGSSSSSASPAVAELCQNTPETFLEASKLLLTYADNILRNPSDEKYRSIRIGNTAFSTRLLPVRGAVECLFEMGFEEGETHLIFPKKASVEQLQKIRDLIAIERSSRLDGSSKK
Test: AUC; sedimentation equilibrium (SE-AUC) of the mixture in 10 mM sodium phosphate buffer (pH 7.0), 25 °C; [hHR23b-UBL] = [PNGase-PUB] = 100, 75 and 50 µM; 20000, 30000 and 35000 rpm; absorbance optics; global fit with the association-dissociation equilibrium model A + B = AB (eq. 7, SEDPHAT)
Settings: both partners purified

- Kd: 227 ± 28 µM
B1: ubiquitin-like domain of the proteasome shuttle factor hHR23b (domain or fragment)
chain: not shown
notes: ubiquitin-like (UBL) domain of hHR23b; molecular weight 9.5 kDa as printed; also called hHR23b-UBL; component A; source: purified, dialyzed in 10 mM sodium phosphate buffer (pH 7.0) or PBS
